T1: Bs Smc (Bacillus subtilis, UniProt P51834 1-1186)
T1 sequence: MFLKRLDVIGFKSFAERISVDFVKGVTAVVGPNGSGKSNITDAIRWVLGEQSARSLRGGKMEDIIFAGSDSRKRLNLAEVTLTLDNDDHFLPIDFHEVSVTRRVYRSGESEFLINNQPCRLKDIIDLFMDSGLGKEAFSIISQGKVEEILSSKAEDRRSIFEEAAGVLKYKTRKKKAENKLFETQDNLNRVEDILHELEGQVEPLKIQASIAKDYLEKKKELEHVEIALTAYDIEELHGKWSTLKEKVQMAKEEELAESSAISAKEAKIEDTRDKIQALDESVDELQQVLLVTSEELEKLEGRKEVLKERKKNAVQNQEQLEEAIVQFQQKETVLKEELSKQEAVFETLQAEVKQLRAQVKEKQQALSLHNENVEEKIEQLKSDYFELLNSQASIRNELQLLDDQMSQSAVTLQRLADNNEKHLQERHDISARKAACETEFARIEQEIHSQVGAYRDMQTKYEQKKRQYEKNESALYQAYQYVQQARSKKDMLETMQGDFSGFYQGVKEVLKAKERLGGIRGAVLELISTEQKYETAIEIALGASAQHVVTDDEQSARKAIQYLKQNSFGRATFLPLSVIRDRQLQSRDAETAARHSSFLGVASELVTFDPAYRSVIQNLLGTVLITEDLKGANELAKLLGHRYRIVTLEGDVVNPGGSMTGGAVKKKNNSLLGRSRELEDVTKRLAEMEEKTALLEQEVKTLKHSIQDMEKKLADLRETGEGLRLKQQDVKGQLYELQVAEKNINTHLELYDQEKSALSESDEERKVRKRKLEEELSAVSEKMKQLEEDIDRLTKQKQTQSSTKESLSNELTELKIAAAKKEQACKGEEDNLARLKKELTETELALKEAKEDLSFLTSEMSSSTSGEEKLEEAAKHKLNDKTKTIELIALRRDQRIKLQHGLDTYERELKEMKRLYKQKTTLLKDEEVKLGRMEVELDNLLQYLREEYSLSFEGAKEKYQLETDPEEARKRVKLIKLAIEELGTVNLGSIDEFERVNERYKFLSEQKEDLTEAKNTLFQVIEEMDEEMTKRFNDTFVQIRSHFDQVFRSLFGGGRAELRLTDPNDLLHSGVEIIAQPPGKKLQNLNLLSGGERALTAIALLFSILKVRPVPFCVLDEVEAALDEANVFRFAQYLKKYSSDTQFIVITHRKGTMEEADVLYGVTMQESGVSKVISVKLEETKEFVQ

T2: ScSmc2H-CC110;ScSmc4H-CC110 (Saccharomyces cerevisiae?;Saccharomyces …, UniProt P38989;Q12267 396-792;555-951, |)
T2 sequence 1: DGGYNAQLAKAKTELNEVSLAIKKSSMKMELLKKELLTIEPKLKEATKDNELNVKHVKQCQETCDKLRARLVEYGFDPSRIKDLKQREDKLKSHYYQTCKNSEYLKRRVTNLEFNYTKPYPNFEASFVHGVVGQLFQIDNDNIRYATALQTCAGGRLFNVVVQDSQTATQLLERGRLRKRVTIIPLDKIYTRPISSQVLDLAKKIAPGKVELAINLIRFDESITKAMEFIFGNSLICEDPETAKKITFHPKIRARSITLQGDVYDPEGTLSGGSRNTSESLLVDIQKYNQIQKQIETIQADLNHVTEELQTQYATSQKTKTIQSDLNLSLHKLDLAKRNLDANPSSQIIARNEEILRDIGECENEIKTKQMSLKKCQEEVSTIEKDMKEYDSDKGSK
T2 sequence 2: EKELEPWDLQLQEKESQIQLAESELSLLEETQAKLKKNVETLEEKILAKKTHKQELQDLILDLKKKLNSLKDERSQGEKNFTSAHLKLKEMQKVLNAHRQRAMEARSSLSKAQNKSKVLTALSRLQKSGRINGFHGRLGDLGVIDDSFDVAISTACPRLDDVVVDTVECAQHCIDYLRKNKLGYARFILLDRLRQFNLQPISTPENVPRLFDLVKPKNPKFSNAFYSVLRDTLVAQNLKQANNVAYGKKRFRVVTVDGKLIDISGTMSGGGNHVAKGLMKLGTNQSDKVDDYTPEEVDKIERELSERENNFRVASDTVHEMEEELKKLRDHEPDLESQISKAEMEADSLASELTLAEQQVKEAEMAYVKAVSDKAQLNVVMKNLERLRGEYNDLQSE

T3: BsSmcH (Bacillus subtilis, UniProt P51834 498-665)
T3 sequence: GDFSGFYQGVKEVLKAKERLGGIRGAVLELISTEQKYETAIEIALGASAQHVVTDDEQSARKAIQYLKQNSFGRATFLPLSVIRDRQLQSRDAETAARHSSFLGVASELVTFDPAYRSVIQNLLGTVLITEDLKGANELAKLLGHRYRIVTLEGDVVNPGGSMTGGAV

T4: BsSmcH-CC100 (Bacillus subtilis, UniProt P51834 400-776)
T4 sequence: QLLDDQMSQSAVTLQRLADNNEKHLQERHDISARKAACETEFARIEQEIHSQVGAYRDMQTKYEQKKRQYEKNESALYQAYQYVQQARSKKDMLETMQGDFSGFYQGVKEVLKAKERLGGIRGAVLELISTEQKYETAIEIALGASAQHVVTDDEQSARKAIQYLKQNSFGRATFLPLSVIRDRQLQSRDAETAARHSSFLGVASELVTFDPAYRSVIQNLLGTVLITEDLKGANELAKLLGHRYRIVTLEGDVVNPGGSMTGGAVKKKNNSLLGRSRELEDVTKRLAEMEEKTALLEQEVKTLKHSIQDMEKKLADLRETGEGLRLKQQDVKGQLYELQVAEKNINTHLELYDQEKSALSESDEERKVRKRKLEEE

T5: BsSmcH-CC8 (Bacillus subtilis, UniProt P51834 489-680)
T5 sequence: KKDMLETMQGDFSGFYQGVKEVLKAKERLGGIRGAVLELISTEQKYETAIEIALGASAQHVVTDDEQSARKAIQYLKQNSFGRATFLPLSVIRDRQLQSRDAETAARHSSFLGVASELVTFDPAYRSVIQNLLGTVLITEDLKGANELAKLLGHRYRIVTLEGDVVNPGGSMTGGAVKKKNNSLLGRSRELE

T6: Bacillus subtilis Smc protein (Bacillus subtilis, UniProt P51834 1-1186)
T6 sequence (looked up): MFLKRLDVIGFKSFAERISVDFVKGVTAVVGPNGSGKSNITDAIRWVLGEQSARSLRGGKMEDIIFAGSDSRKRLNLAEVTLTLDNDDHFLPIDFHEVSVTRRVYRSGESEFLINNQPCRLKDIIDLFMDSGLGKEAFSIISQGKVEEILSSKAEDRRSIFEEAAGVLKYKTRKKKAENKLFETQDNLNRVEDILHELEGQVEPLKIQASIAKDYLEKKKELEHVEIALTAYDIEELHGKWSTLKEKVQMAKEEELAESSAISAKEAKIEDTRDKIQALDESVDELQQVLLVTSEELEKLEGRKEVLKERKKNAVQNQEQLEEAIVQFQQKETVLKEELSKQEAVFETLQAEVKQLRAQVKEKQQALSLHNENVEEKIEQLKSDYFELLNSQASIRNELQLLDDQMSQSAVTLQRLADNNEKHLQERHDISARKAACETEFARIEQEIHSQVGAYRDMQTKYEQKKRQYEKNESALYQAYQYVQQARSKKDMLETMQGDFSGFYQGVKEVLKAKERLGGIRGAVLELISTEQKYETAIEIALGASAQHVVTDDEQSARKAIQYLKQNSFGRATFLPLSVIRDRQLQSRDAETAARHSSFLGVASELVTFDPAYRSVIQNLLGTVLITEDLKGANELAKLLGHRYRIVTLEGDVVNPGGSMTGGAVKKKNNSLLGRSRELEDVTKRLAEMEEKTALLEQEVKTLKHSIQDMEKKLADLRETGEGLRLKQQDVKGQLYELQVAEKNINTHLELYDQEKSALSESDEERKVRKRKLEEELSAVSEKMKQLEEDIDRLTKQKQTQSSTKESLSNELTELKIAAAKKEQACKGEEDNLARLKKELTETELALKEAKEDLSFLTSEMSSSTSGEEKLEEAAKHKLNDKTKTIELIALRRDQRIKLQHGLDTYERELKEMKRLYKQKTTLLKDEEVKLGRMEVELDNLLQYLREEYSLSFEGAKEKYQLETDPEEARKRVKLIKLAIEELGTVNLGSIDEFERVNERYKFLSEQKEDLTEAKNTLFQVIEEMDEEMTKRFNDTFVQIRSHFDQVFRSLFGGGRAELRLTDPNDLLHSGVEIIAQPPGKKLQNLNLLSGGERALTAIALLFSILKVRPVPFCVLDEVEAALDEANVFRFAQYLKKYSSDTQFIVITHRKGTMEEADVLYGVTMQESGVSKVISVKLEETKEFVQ

B1: Bacillus subtilis ScpA (natural protein, UniProt P35154 1-251, looked up)
chain: MEEYQVKIDTFEGPLDLLLHLINRLEIDIYDIPVAKITEQYLLYVHTMRVLELDIASEYLVMAATLLSIKSRMLLPKQEEELFEDELLEEEDPREELIEKLIEYRKYKDAAKDLKEREEERQKSFTKPPSDLSEYAKEVKQSEQKLSVTVYDMIGAFQKVLKRKKINRPMETTITRQDIPIEARMNEIVHSLKSRGTRINFMDLFPYEQKEHLVVTFLAVLELMKNQLVLIEQEHNFSDIYITGSESIHGA

What was measured:
Bs Smc = molecular target: T1, Bs Smc; experiment: fluorescence anisotropy
[1] = molecular target: T2, ScSmc2H-CC110;ScSmc4H-CC110; experiment: fluorescence anisotropy
BsSmcH = molecular target: T3, BsSmcH; experiment: fluorescence anisotropy
BsSmcH-CC100 = molecular target: T4, BsSmcH-CC100; experiment: fluorescence anisotropy
BsSmcH-CC8 = molecular target: T5, BsSmcH-CC8; experiment: fluorescence anisotropy
[2] = molecular target: T6, Bacillus subtilis Smc protein; experiment: SEC-MALS
Bacillus subtilis ScpA = molecular target: B1; experiment: SEC-MALS
SEC-MALS = molecular target: the molecule itself; experiment: SEC-MALS

binding result [2]	binding result (Bacillus subtilis ScpA)	Binder	Kd (Bs Smc)	Kd [1]	binding result (BsSmcH)	Kd (BsSmcH-CC100)	Kd (BsSmcH-CC8)	binding result (SEC-MALS)
–	–	ds40 (dsDNA) DNA 1: TTAGTTGTTCGTAGTGCTCGTCTGGCTCTGGATTACCCGC DNA 2: GCGGGTAATCCAGAGCCAGACGAGCACTACGAACAACTAA	~100 nM	~50 nM	no binding	~100 nM	~200 nM	–
binds	–	B1	–	–	–	–	–	–
binds	binds	Bacillus subtilis ScpB (natural protein, UniProt P35155 1-197, looked up) MGLDIVNWKAIVEALLYAAGDEGLTKKQLLTVLEIEEPELNTIMADVADEYRGDTRGIELIEYADTYMLSTKKDFAPYLKKLIEVPSKGLSQASLEVLAIVSYKQPITRAEIEEIRGVKSERILHSLVAKALLCEVGRADGPGRAILYGTTPTFLEQFGLKTLDELPPLPENAEEDVLQEEADLFFENFNQTFEDIK	–	–	–	–	–	binds

— paper PMC4306524 (Molecular Cell, 2015)
